These are literature values, as cited in patent US11820970B2, “High throughput protein-protein interaction screening in yeast liquid culture” (University of Washington, priority 2016, dated 2023).

The target of data set [1] is T1, Bfl1 (Homo sapiens, UniProt Q16548).
T1 sequence (Q16548 1-175): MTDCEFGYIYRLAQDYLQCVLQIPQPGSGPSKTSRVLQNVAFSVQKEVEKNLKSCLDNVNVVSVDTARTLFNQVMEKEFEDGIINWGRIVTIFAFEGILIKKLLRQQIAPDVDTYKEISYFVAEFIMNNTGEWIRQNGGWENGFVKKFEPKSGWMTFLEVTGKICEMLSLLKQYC
Particulars: binder vs Bfl1; known affinities; read-out: AFFINITY

Data set [2] deals with T2, BclB (Homo sapiens, UniProt Q9HD36).
T2 sequence (Q9HD36 1-204): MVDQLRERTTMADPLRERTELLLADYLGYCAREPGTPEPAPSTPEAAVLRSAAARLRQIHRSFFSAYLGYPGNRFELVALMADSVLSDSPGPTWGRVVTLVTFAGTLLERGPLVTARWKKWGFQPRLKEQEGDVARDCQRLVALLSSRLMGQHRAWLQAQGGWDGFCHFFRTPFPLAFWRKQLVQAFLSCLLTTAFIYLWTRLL
Particulars: binder vs BclB; known affinities; read-out: AFFINITY

For data set [3], the target named is Bcl2 (Homo sapiens, UniProt P10415). Particulars: binder vs Bcl2; known affinities; read-out: AFFINITY
For data set [4], the target named is BclXL (Homo sapiens, UniProt Q07817). Conditions: binder vs BclXL; known affinities; read-out: AFFINITY
The target in data set [5] is T3, BclW (Homo sapiens, UniProt Q92843).
T3 sequence (Q92843 1-193): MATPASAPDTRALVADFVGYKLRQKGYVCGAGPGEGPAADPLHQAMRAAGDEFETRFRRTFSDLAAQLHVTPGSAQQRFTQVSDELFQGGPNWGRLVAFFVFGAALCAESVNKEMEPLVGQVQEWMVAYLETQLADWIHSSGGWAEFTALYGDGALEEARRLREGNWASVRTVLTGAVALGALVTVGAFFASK
Conditions: binder vs BclW; known affinities; read-out: AFFINITY

Data set [6] addresses Mcl1 (Homo sapiens, UniProt Q07820). Particulars: binder vs Mcl1; known affinities; read-out: AFFINITY

Chain of Bcl2 (P10415 whole entry, species assumed): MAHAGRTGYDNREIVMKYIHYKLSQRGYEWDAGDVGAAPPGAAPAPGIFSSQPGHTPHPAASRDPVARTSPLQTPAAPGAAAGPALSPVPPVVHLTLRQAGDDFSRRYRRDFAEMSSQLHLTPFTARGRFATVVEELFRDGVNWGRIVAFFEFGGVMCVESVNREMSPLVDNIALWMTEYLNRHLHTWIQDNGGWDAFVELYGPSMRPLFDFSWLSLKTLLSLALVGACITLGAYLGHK
Chain of BclXL (Q07817 whole entry, species assumed): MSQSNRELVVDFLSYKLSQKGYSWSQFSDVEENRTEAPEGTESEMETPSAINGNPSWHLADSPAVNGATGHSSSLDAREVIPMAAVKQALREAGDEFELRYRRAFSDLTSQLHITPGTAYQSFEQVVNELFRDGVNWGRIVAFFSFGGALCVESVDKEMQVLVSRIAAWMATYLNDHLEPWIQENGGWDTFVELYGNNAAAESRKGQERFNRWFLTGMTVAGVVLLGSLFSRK
Chain of Mcl1 (Q07820 whole entry, species assumed): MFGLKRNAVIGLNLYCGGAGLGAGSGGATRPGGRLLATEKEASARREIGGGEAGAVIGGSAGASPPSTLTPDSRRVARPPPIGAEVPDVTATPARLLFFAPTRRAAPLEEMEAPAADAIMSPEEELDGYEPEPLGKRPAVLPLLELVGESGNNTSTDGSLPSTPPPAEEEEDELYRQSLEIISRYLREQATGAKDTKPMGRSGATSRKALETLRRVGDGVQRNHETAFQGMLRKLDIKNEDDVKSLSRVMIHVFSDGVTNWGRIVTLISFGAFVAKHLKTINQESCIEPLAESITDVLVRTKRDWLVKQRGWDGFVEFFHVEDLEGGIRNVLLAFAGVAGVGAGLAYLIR

B1: B-CDP01: de novo (engineered) binding protein for Bcl2 family homologues, displayed as SAP (protein)
chain: ADPKKVLDKAKDQAENRVRELKQELERLYKEARKLDLTQEMRRKLEWRYIAAMLKAIGDILNAIAQAENEADKLKKAGLVNSQQLDELRRRLEELAKEAARKAHDYGREFQLKLEY
Take B1: the Kd in data set [1] was 518 nM; in data set [2] it was 8.33 nM; in data set [3], 17.3 nM; in data set [4], 20.2 nM; in data set [5] it was 2010 nM; in data set [6], 0.46 nM.

B2: X-CDP07: de novo (engineered) binding protein for Bcl2 family homologues, displayed as SAP (protein)
chain: ADPKKVLDKAKDRAENVVRKLKKELEELYKEARKLDLTQEMRDRIRLAAIAARIAAFGDIFHAIMEALEEARKLKKAGLVNSQQLDELKRRLEELDEEAAQRAEKLGKEFELKLEY
In the case of B2, the Kd is 7050 nM in data set [1]; 107 nM in data set [2]; 3.81 nM in data set [3]; 0.59 nM in data set [4]; 14.9 nM in data set [5]; 17.4 nM in data set [6].
